# Assay: label from the status in PepcDB records
row,Sequence,protein production
1,MRGPAVLLTVALATLLAPGAGAPVQSQGSQNKLLLVSFDGFRWNYDQDVDTPNLDAMARDGVKARYMTPAFVTMTSPCHFTLVTGKYIENHGVVHNMYYNTTSKVKLPYHATLGIQRWWDNGSVPIWITAQRQGLRAGSFFYPGGNVTYQGVAVTRSRKEGIAHNYKNETEWRANIDTVMAWFTEEDLDLVTLYFGEPDSTGHRYGPESPERREMVRQVDRTVGYLRESIARNHLTDRLNLIITSDHGMTTVDKRAGDLVEFHKFPNFTFRDIEFELLDYGPNGMLLPKEGRLEKVYDALKDAHPKLHVYKKEAFPEAFHYANNPRVTPLLMYSDLGYVIHGRINVQFNNGEHGFDNKDMDMKTIFRAVGPSFRAGLEVEPFESVHVYELMCRLLGIVPEANDGHLATLLPMLHTESALPPDGRPTLLPKGRSALPPSSRPLLVMGLLGTVILLSEVA,failed
2,MRGRIMSTFTTISSDKLARLIGTANAPVLIDVRTEEDFAADRRLIPGSIRLSHENVPDWGAAFAGRSVIVSCLRGAKLAQGTAAWLRQLGVQAETLDGGFEGWKEAKLPLLDTRKLPPRDAKGRTVWVTRARPKVDRIACPWLIRRFVDPNAVFLYVAPSEVVAVGERFNAAPFDIENVFWSHRGELCTFDVMIEEFGIATPALLRLATLVRGADTARPDLAPEAPGLLAASLGLSRMYDDDLEQLEAGLLLYDAFYRWCRDATAETHNWPTNKVKA,failed
3,MRGTTDEEDGVMNFSDVLMMSDDVLSSGEVEEDSFGFRFTGNDAPQMLCFGGGNQNDTDLLFSQPSFSPASPLSSRNNACVVNDQSFRSNKKTGSADGHDRVCDPKPGKRCKRDQKKSSLGNAKDDEDTGEVNPTMKVKELRSNGLCLVPLAWTVHVANTNGADLWSSAILSPLTSHTNSEPVEIVEVKSHKDK,failed
4,MRGVRLLAVIGLVLGGLVLSGRPAQAQYAQDSLAFDLEHVFDLEYAADPQISPSGDRVVYARTVMDKMDDRRASRLWAVNADGSGHRPITAPETNASQPRWSPSGDRVAYVASTEGDGAEVFVRWMDTGQTARITQLEESPSGLSWGPEGDRLAFSMFVPAEPEPFARMPSPPEGADWAERPDVIDQTYYRSDGGGYTERGHTQLFVVSASGGTPRQITTGPYDHGGAPTWTPDGETLLISANRHADRRLDPLNTEVYAVDVASGAVTALTTRQGPDGDVALSPDGSTIAYTGFDDREQGYQVTKLYVMDRDGTNARLLTEGFDRDVQNPTFTADGEHIVFRYVDEGSTKIGRVALDGGRRVVAEHVGGTSIGRPYTSGSFSLASNGRVAFTHATPQRPADVAVAQAGREAQVLTALNDDLFGQVDLGSVEQITYESSHDGRTIEGWIVTPPGFDASQEYPLVLEIHGGPFASYGPYFSAEVQLYAAAGYVVLYTNPRGSTSYGQDFGNAIHHDYPGHDYDDLMSGVDAVLERGYVDADRLYVTGGSGGGVLTSWIVGHTDRFRAAVAAKPVINWYSWALTADMYPYGVKYWFPGLPWNHEEHYMDRSPLSYVDNVTTPTMLLTGANDYRTPMSESEQFYQALKLREVETALVRVPGASHSIAARPSHLAAKAAHVLEWFRRHGGPTPEQ,failed
5,MRGVYRVMVKVYIENYGCARNRADGEIMAALLYLSGHEIVESPEESEIVVVNSCAVKDPTERKIARRIRELLDNGKKVIVTGCLPHVNPDVIDERVSAILGVKSIDRIVQAVEYAMRGEKLISVPDWKKRNLDKLDFPRLSPRNVYFILPIAEGCLNACTYCATRLARGVLKSYSPEKIIGWVKWAIKQGYKEIWLSAEDTGCYGFDIGTNLAKLIDEITAIEGEFRIRVGMMNPNHVLKFLDELIDAYKDEKVYKFLHLPVQSGDNEILRKMGRMYTVEEFEEIVKAFRREFPELNLHTDIIVGFPGESEEAFQRSVELIKRIRPDKVNVSRYSPRPGTIAAKWKQLPGWVVKERSRLLHRIRLQISYEINRKYIGKKVKVLIHGEGKKGNVDAVTMNYKHIILPEGRKGEFREARVKNAASTYLLGEIIT,failed
6,MRHFRVFLRKPKRITSAAQPLETGSSGLHFSAVNPRQAPASFFPSLRRFTVRLTAARQDQLVSYFFTCFKGVSMSQSVMKKSVLRILPGLLCLALPLSSCSSSKSPKATMTATPVELRYREATEKIAKRKYNDAIVILESLMFSTRATALEDDVLKALADSYYKKKEYILAADTYRRLLQQTPDSPYARDAQFMLAKSYEKLSPFHELDQEYTVKAINEFETYLDQYPSDDSAQAANDLELYKNLMKVNPDNASYREKYEAAKEELASGSPARYSQKAISELRERLAHNRFSIARQYFKLKKYRAAEIFYDVVINQYPDTKWLESAWIGKIDSEIKQNNWFEARQSIETFQQLYPDKAKLIEPAAKRVTAHYSNKRDPKSKE,failed
7,MRHPYVFPACVAGALLVAGCAPKQTDEETVERAFQDVNVVDETNLSEVMLTVTDPNEAISYYQRTLKSDPDRLDLRRGLATSFVRAKRFTEAASAWEKVTELKDSTHEDSVNYADALIRSGDWDTAEKVLDTVPPTYETFKRYRLEAMMADANKEWRKADSFYETAIGLTTTPAGAFNNWGYSKLTRGDFSGAEKLFGQAIRQDPTLFTAKNNLVLARSAQRKYTLPVVPMTQSERAQLLHTMALSAVRQGDIQTSKSLLRDAIDTHPQHFDAAVRALEALERSG,failed
8,MRICLFLCLCLCMASPALAQVAVFPALSGKTDAQTLVVYSSLDEPLATPMIEGFQKANPDIAVHYEDMLTGEIYDRIVKETDAGKKTADFAFSSAMDLQVKLSNDGYAQRSDLAMSARWPAWANWRNTAYALTFEPAVFVYHKPSFTTEKPPATRAEFVDYLERHAKEVHGRIATYDIERSGVGFLFMSRDQEQFGDIWSVIKAMGAAGVKVYSTSSAILERVSDGRFVLGYNILGSYAADWASRHPDVGIVLPKDYTVVMSRIGLVPEAAANPELGRRYLEFFMSKEGQTIMARQLQIPAVSPEVAGENTANTMQAIHGAQLRPVPVSPGLMVYLDQVKRSRLIERWNEALRSQ,failed
9,MRIDVESQNINVTSLKEAPIHLSGQIQPHGVLLVLEEPGLKILQVSNNTWGILGINAENILQKKLEDLLDSFQIERIQSGLSSGNLEFINPTKIWIRKKGDDYAVFDAVFHRNTEGFLILELEPAITQENIPFLSFYHLAKASINQLQKTANLRDFCQIIVQEVRKVTDFDRVMLYKFDDDGHGSVIAEEKLDSLEPYLGLHYPESDIPKPARKLFISNSIRVIPNAQAQAIQMIPALNPVSDRPVDLTNSILRSAANCHLEYLHNMGVGASLTISLIKDNKLWGLIACHHLSAKYVSYELRKACEFLGRVIFAEISAREETEDYDYRMNLTHIQSLLVEYMSQEDNFVDGLIKHQPSLLDLTSAQGAAVCFGDHCTLIGETPKAEDLVFLVQWLKNNVEEEVFYTDSLPQVYPDAERYKNVASGLLAIPISQRNYVLWFRPEVIQTVNWGGDPNQPFEVNKLDGNVRLCPRKSFELWKETVRLTSLPWRYVEIRAALELRKAIVNIVLRQADELAQLAHDLERSNAELKKFAYVASHDLQEPLNQVANYVQLLEMRYQDQLDADANEFITFAVEGVSLMQTLIDDVLAYSKVDTQAIAFQLTEVEKALDKALGNLRQRIAETGANITHDPLPTVMAGSTQLMQLFQNLIANAIKFRSEEAPQIHIGAERLEDEWLFSVRDNGIGIDPQFSDRIFVIFQRLHTRDEYHGTGMGLAICKKIIECHRGRIWVESQLGEGATFYFTIPVGGRERERRNGRKTQNNLFS,failed
10,MRIFKLSPDEEERFFDNLPRFLFYYLFLFTIFWFGLTQKSAEEIRESILSGNVSPDFWRSTLVVLLLLAITDAYLMRKGDTNWNTPGAALFMLFGFFIMLLVVMYVGRASILFVVSLFLIYINTLIKTKEELRKKNH,failed
11,MRIGGTTSPIASHSFYVATRGYMDKTQSEEKNRRPLAVRDLNFTKRIAVWLSQKQITPNQISLMSIAFALLGCAILAVYHYYPAPLWLILAALSIQARLLCNLFDGMVAVEGGKKTPAGELFNDVPDRIADPLLILGAGFVTTSALGMTLAWLCALLAVLTAYIRVLGVSIGGEADFQGPMAKQHRMALLTLSLLFIAALSLFDELPTFFAYTMDLTLIVMLIGLVLTVWRRLQHIYQFHAARASSSDHQGN,failed
12,MRIHRLDIEAFGPFATPQHIDFDHLSAQGLFLLNGATGAGKTSILDAICFALYGSVPGARQEGKRLRSDHAAPGAEPRVVCEFSARGRRFEVTRSPAWDRPSARGRNGFTTQQAKTLLRERVAGSWEEKSSRNDEVGAELSDVLGMDREQFTRVVMLPQGDFAAFLRSKANDRLELLQKLFGTQRFEAVERQLVHQAAEAARAVQENASELKLLLDRVASEQDQLGLPAADTSAAGTEPGQEPEAWLAGVEAEVEAEWKRRQNEAAEAESLSSRLMEHFQEAQEKSQRHGRLGAAMQRRVLLELAAPRALENKEMLGKHRRAAVLSGQLEAVDSAARKLHTASARAAGLREKLDAAGLDAAKPTIALETVKASCAVLEARLPEEQRLEGITVRLAARRGELAEHLSAAEAAATVVDQLREEVSAVELEIQPLEPLADQLAEREREATAAAELVGIVARHATAASELDVITGKHLHARSASQDLRQKWLDVRELRLANAAGELAAALESGKPCAVCGSEEHPNPAQAVRTALSLAQEEEEARERFEASERALGLLAEQVSSAAQVLAGLVAQGGSADAAAAESTLADARAAALAARTAEASLEKLRVRHEALIKRIVLAQEEHDASVGAAAQASAAVHVLQEQCVALETDLAGLRGDFSSLRDRLEALEAERGLLQAAVDADRELERAEQARQDAAASLDKALSESGFASADDARREILSPADVVGLEKDLADFDAESSRLDELFGSEDLVLAAKEASIGEHPLGEAELAESKLHAANAADDARAKALSAGLAGKSAAAVARFRTEYQSLAQAGREPRNRAQMLAELADTVRGSGDNSYRMSLNAYVLAARLEQVATAASERLVAMSDGRYTLQHTDAKAARGAKSGLGLEVVDEWTGQRRDTSTLSGGESFMASLSLALGLADVVQQEAGGVDIETLFVDEGFGSLDDQALEQVMDALEGLRDGGRVVGLVSHVGEMKQRITNQLQVVKGRHGSSVRIAEAGPV,failed
13,MRIHSPYPASWALAQRIGYLYSEGEIIYLADTPFERLLDIQRQVGQCQTMTSLSQADFEARLEAVFHQNTGESQQIAQDIDQSVDLLSLSEEMPANEDLLNEDSAAPVIRLINAILSEAIKETASDIHIETYEKTMSIRFRIDGVLRTILQPNKKLAALLISRIKVMARLDIAEKRIPQDGRISLRIGRRNIDVRVSTLPSIYGERAVLRLLDKNSLQLSLNNLGMTAADKQDLENLIQLPHGIILVTGPTGSGKSTTLYAILSALNTPGRNILTVEDPVEYELEGIGQTQVNTRVDMSFARGLRAILRQDPDVVMVGEIRDTETAQIAVQASLTGHLVLSTLHTNSASGAVTRLRDMGVESFLLSSSLAGIIAQRLVRRLCPQCRQFTPVSPQQAQMFKYHQLAVTTIGTPVGCPHCHQSGYQGRMAIHEMMVVTPELRAAIHENVDEQALERLVRQQHKALIKNGLQKVISGDTSWDEVMRVASATLESEA,failed

# Reference: a protein production outcome set (Wang et al. 2014)
